Measurements reported in patent US6372467B1, “P54s6k and p85s6k genes, proteins, primers, probes, and detection methods” (President and Fellows of Harvard College, priority 1998, dated 2002).

Assays:
p70^S6k = experiment: In vitro kinase assay (GST-S6 substrate) of N2 anti-p70^S6k antiserum immunoprecipitates from mitogen-treated 293 cells; format: cell-based, human; conditions: EGF 250 ng/ml or insulin 200 nM for 20 minutes
Description: (§1) 293 cells were treated with serum (10%), EGF (250 ng/ml), or insulin (200 nM) for 20 minutes, lysed, and the lysates were immunoprecipitated with 167 anti-p54^S6K antiserum or with N2 anti-p70^S6k antiserum. Phosphorimager™ counts from an in vitro kinase assay of the immunoprecipitates using GST-S6 as the substrate are shown.
(§2) Antibodies were made using standard techniques, such as those described in Harlow and Lane (Antibodies: A Laboratory Manual, Cold Spring Harbor Press, New York. 1988). The cells were starved and then stimulated with serum, EGF, or insulin, or left unstimulated. Rapamycin or wortmannin were also incubated with the cells prior to serum stimulation when indicated.
(§3) Lysates from 293 cells transfected with HA-p54^S6K or HA-p54^S6K KR were immunoblotted with anti-HA Ab. (FIG. 3B bottom left panel). […] This is of interest since a majority of the p70^S6k phosphorylation sites are conserved in p54^S6K (FIG. 1B). […] Finally, the activation kinetics of p54^S6K and p70^S6k were compared.

p54^S6K = experiment: In vitro kinase assay (GST-S6 substrate) of 167 anti-p54^S6K antiserum immunoprecipitates from mitogen-treated 293 cells; format: cell-based, human; conditions: EGF 250 ng/ml or insulin 200 nM for 20 minutes
Description: as §1, §2, §3

Substance	p70^S6k kinase activity (activation by mitogen) (p70^S6k)	p54^S6K kinase activity (stimulation by mitogen) (p54^S6K)
EGF	only mildly activated	to a small degree
insulin	strongly activated	stimulated
